First the molecules themselves.
B1: TPR 5TU (parent)
chain: GGAUCUUCUCGAUCUAACAAAAAAGACAAAUCUGCCACAAAGCUUGAGAGCAUCUUCGGAUGCAGAGGCGGCAGCCUUCGGUGGCGCGAUAGCGCCAACGUUCUCAACUAUGACACGCAAAACGCGUGCUCCGUUGAAUGGAGUUUAUCAUG

This sample holds only a part of the variants without activity.

The variants in the data set derive from B1. In words: polymerase ribozyme fitness, log enrichment relative to wild type (log ratio); higher = more active; in vitro selection for triplet polymerase activity. Put shortly: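 Frozen incubation at −7 °C formed the core of a single, triplicate in vitro selection round applied to PCR-built, transcribed mutant libraries of each subunit of a heterodimeric triplet polymerase ribozyme. Extended constructs were gel-excised, captured with streptavidin beads and amplified by RT-PCR, and input and output libraries were Illumina-sequenced with a filter of ≥10 input reads and ≥1 read per output. Fitness is the logarithm of genotype enrichment relative to wild-type enrichment, with inverse-variance-weighted replicate averaging, and the logarithm is base 2.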
As for A26U G46U A47U G74C C79G G92U G140A, the “polymerase ribozyme fitness (log ratio)” value was at most -4.2. With A26C G83A G126A A137G the figure was at most -4.2; with G25U A52C U90C C95U U111A U135A U151G, at most -4.2.

With C27A U45A C87U A138C, the “polymerase ribozyme fitness (log ratio)” value is at most -4.2. Turning to G25U C76U, the “polymerase ribozyme fitness (log ratio)” value is -2.44. With A26U G48C A49U A64C U90G A137G, the “polymerase ribozyme fitness (log ratio)” value was -4.11. A26C A91G A121C U139C: the “polymerase ribozyme fitness (log ratio)” value was at most -4.2. As to G25U G46C G50A G62A C96U, the “polymerase ribozyme fitness (log ratio)” value is at most -4.2.

Turning to A26G G81A C95U, the “polymerase ribozyme fitness (log ratio)” value was at most -4.2. For C27A A47U A106U U145A the value was at most -4.2; for A26U C54A U56G C75A C93A U134A, at most -4.2.

As for A26G A49G C57U G59A C72A, the “polymerase ribozyme fitness (log ratio)” value is at most -4.2.

For G25C U45A G59A U90G G100A C116G, the “polymerase ribozyme fitness (log ratio)” value is at most -4.2. With C27A A28U A39C C54G C96A the figure was at most -4.2.

As to A26C G65A C79A A89U A97C G117A, the “polymerase ribozyme fitness (log ratio)” value was at most -4.2. A26C U45G C63U C75U G80C G112C U144G: the “polymerase ribozyme fitness (log ratio)” value is at most -4.2. On to A26U A98G U127G, for which the “polymerase ribozyme fitness (log ratio)” value is at most -4.2. For the variant C27A C63A G80C C85G A119C U144A, the “polymerase ribozyme fitness (log ratio)” value is at most -4.2.

As for G25U G50U C54A A66U A91C, the “polymerase ribozyme fitness (log ratio)” value is at most -4.2. For A26U A47C A49C G80C C85A A113G A150U the value was at most -4.2; for A26U A37C C95G A107C G152U, at most -4.2; for A26G A40C C63U G80U G92A G126U A142U, at most -4.2.

Consider A26C C57G G80A, for which the “polymerase ribozyme fitness (log ratio)” value was -4.09. For A26G U145A, the “polymerase ribozyme fitness (log ratio)” value is -3.59.

As to A26C G88U G92U G117U, the “polymerase ribozyme fitness (log ratio)” value is at most -4.2. Take A26U C85U: the “polymerase ribozyme fitness (log ratio)” value was -1.63. With A26G C36U G65C A91G U111G C149A the figure was at most -4.2. For A26U A28U C32A A52U A73U A91U G92A A113G U148A G152U the value was at most -4.2; for G25C U56A U104C A106U A113G U139G U145A, at most -4.2. As to G25U A29U C43A A64U C93U C131U, the “polymerase ribozyme fitness (log ratio)” value was at most -4.2.

Consider A26C C36A U44G U55A G140C, for which the “polymerase ribozyme fitness (log ratio)” value is -4.19. For A26C C38U C69A U77G G88U the value was at most -4.2; for A26C U144C, -2.23; for A26C U144G, -0.859. On to A26U U44A G58A C87U A107G C123G G141C, for which the “polymerase ribozyme fitness (log ratio)” value was -3.93. For G25U C32U A40U U56A G80C C85A C87A C116G U146G A150U the value was at most -4.2. For the variant G25U A89C, the “polymerase ribozyme fitness (log ratio)” value was -3.41. A26C U78C G88A C108G C114G C149G: the “polymerase ribozyme fitness (log ratio)” value is at most -4.2. With G25C U61A C87G A138G the figure was at most -4.2. With A26U G92C the figure was -3.52; with G25U G46A C57U C69A G128U A138U, at most -4.2; with G25U G42A C87G, at most -4.2. Consider A26U A49U A137G, for which the “polymerase ribozyme fitness (log ratio)” value was at most -4.2.

On to A26C C76U G81U G86A U144C, for which the “polymerase ribozyme fitness (log ratio)” value is -3.81. For A26U C54U C95U the value was -1.76; for A26C C51G G65A G74C G81U C93G A119U C132U G141C, at most -4.2; for G25U U55A C85A G140C, at most -4.2.

A26C A30C U45A C54G G92A U104G A147G: the “polymerase ribozyme fitness (log ratio)” value was at most -4.2. For G25U C32U C36A C85U C114U C129U U134C the value was at most -4.2. Take A26U C43A A49G G58C C93U G112A: the “polymerase ribozyme fitness (log ratio)” value was at most -4.2. Consider C27A G46U G50U U56A G70C U101G, for which the “polymerase ribozyme fitness (log ratio)” value was at most -4.2. As to A26U G141U, the “polymerase ribozyme fitness (log ratio)” value is -1.94. With A26U A40U A91U A122U the figure was at most -4.2; with G25U C99U A119C A120G, -3.26. For C27A G59A C85U U134A the value was at most -4.2; for A26U A41G G62U, -1.6.

Take A26U C93U: the “polymerase ribozyme fitness (log ratio)” value is -2.67. G25U C85G: the “polymerase ribozyme fitness (log ratio)” value is -3.79. With G25U C85A the figure was -3.88; with G25U A39G U61A U77A C87U G141A U151A, at most -4.2. For G25U C54A G80A, the “polymerase ribozyme fitness (log ratio)” value is -4.05. For A26U U148A the value was -4.11; for A26C C43U A52G G71C A97G, at most -4.2; for A26C A41C C57G, -3.4. On to A26U C75A U82G G92U G100A A107U U144A, for which the “polymerase ribozyme fitness (log ratio)” value was at most -4.2.

G25U A30C A47C C99G U101G C105A: the “polymerase ribozyme fitness (log ratio)” value was at most -4.2. As to A26C A29U C36A G42A U61A G70A A73C, the “polymerase ribozyme fitness (log ratio)” value is at most -4.2. Take A26U C85U A115G: the “polymerase ribozyme fitness (log ratio)” value is -3.36. With A26U C51U G58C, the “polymerase ribozyme fitness (log ratio)” value was -2.08. Regarding C27A U55G A66U C72U U78G C79U A91C C105U, the “polymerase ribozyme fitness (log ratio)” value is at most -4.2. Regarding C27A G74A C76G G86C G128A C129U U144C, the “polymerase ribozyme fitness (log ratio)” value is at most -4.2. In the case of C27A C54G C105U, the “polymerase ribozyme fitness (log ratio)” value is at most -4.2. Turning to C27A U56A A60U A122C U144A, the “polymerase ribozyme fitness (log ratio)” value was at most -4.2. On to C27A C38G C43U C85U G133A U144C, for which the “polymerase ribozyme fitness (log ratio)” value was at most -4.2. For G25U U55A C72G C93G G140A the value was at most -4.2; for A26G A91U U104G A122C, at most -4.2; for A26G A49C A89U G92A U102G G140U, at most -4.2. For G25U U148A the value was at most -4.2. Turning to A26G U78C, the “polymerase ribozyme fitness (log ratio)” value was -3.95. Regarding A26U U61A G71C C79U A98G U151A, the “polymerase ribozyme fitness (log ratio)” value is at most -4.2. Take G25U C85U C116G A120U G141C: the “polymerase ribozyme fitness (log ratio)” value was at most -4.2.

Consider A26C C38G G68C C76U G84U U139G, for which the “polymerase ribozyme fitness (log ratio)” value was at most -4.2.

A26C C32A U53G U56A C75U U104A U111C A120G: the “polymerase ribozyme fitness (log ratio)” value was at most -4.2. Regarding G25U A37C G83A U134C, the “polymerase ribozyme fitness (log ratio)” value was -2.66.
